Source: publication doi:10.1101/2022.06.28.498018 (bioRxiv, 2022)

B1: P116 ectodomain (residues 30-957) from Mycoplasma pneumoniae (domain or fragment, UniProt P75556 30-957, looked up)
chain: NKTHQVEHESEQSDFQDIRFGLNSVKLPKAQPAAATRITVENGTDKLVNYKSSPQQLFLAKNALKDKLQGEFDKFLSDAKAFPALTADLQEWVDQQLFNPNQSFFDLSAPRSNFTLSSDKKASLDFIFRFTNFTESVQLLKLPEGVSVVVDSKQSFDYYVNASAQKLLVLPLSLPDYTLGLNYMFDHITLNGKVVNKFSFNPFKTNLNLAFSNVYNGVDVFEAQKNLVGKGKYLNTHVKAEDVKKDVNANIKNQFDIAKIIAELMGKALKEFGNQQEGQPLSFLKVMDKVKEDFEKLFNLVRPGLGKFVKDLIQSSSQAENKITVYKLIFDNKKTILNLLKELSIPELNSSLGLVDVLFDGITDSDGLYERLQSFKDLIVPAVKTNEKTAALSPLIEELLTQKDTYVFDLIQKHKGILTNLLKNFLADFQKSTPFMADQVAIFTELFDNEGAFDLFGEADFVDKIAELFLTKRTVKNGEKIETKDSLLVTSLKSLLGEKVAALGDLLDSYIFKNELLNRSVEVAKAEAKDTKGATDYKKEQAKALKKLFKHIGENTLSKTNLDKITLKEVKNTENVELEETETTLKVKKLDVEYKVELGNFEIKNGLIKAMLEFLPDTKDLETTLDKLLFKGESYKAMKDKYIKEGFPGYGWAKGVVPGAFESIENTFKSAIDKTKSIRDLFGDMLFGNDLSSVKETDSFITLGGSFDIKYGGENLNVLPAYYSLINSEIGYQIIGVDTTIDATKVKVELKNKEYKGKSPAINGQVKLSQSFFNVWTNMFDSITKQIFQKKYEFKDNIQVFARNEDNTSRLELDISDPEQRVIPFAFVDGFGIQLKAVDKNITKEAGNTEPKSPVIQLYEALNKEKDQKQQSKQSPKQLDTKTQLGYLLKLGDNWSKDDYKSLIDDTIINNNYLEASFNSKITVDRLG

How the values were obtained:
[1] = molecular target: P116 variant Trp681Ala (Mycoplasma pneumoniae) (UniProt P75556); test: SEC-MALS
cryo-EM structure = molecular target: the molecule itself; test: cryo-EM structure

Row | Molecule | ratio of dimers to monomers (dimers per monomer) [1] | stoichiometry N (cryo-EM structure)
1 | P116 variant Trp681Ala (from UniProt P75556 30-957) (domain or fragment) | 0.25 | –
2 | B1 | – | 2
